Measured values taken from US20250368745A1 (published 2025).
Residue numbers refer to the chain shown, from its start. Names may count otherwise.

T1: human IL-18BP (human, UniProt O95998 31-194)
T1 construct: UniProt printed as 095998; also called hIL-18BP
T1 sequence: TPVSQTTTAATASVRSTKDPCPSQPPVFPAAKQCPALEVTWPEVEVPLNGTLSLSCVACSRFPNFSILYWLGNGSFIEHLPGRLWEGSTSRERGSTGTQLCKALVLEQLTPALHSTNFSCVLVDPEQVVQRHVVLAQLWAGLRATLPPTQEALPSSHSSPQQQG

T2: human IL-18BP (human, UniProt O95998 31-194)
T2 construct: also called hIL-18BP; Mature Human Isoform A
T2 sequence: T1 sequence

B1: SA301a HC-Y96T (antibody, name in Kabat numbering, V domains shown)
VH: QVQLQESGPGLVKPSQTLSLTCTVSGYSITSDYNSHWIRQPPGKGLEWIGYIHYSGSTNYNPSLKSRVTISRDTSKNQFSLKLSSVTAADTAVYYCARNTGSIYVNYFDYWGQGTLVTVSS
VL: EIVLTQSPATLSLSPGERATLSCSASSSVSYMYWYQQKPGQAPRPLIYRTSNLASGIPARFSGSGSGTDFTLTISSLEPEDFAVYYCQQYHSYPTFGGGTKVEIK
notes: IgG1 kappa
B2: SA301a HC-Y96V (antibody, name in Kabat numbering, V domains shown)
VH: B1 VH with T100V
VL: B1 VL
notes: IgG1 kappa
B3: SA301a HC-Y96S (antibody, name in Kabat numbering, V domains shown)
VH: B1 VH with T100S
VL: B1 VL
notes: IgG1 kappa
B4: SA301a light chain variant V29T (antibody, V domains shown)
VH: B1 VH with T100Y
VL: B1 VL with V29T
B5: SA301a light chain variant S27G (antibody, V domains shown)
VH: B1 VH with T100Y
VL: B1 VL with S27G
B6: SA301a light chain variant S28K (antibody, V domains shown)
VH: B1 VH with T100Y
VL: B1 VL with S28K
B7: SA301a light chain variant S28Q (antibody, V domains shown)
VH: B1 VH with T100Y
VL: B1 VL with S28Q
B8: SA301a light chain variant V29H (antibody, V domains shown)
VH: B1 VH with T100Y
VL: B1 VL with V29H
B9: SA301a light chain variant S27P (antibody, V domains shown)
VH: B1 VH with T100Y
VL: B1 VL with S27P
B10: SA301a light chain variant S27A (antibody, V domains shown)
VH: B1 VH with T100Y
VL: B1 VL with S27A
B11: SA301a light chain variant S28Y (antibody, V domains shown)
VH: B1 VH with T100Y
VL: B1 VL with S28Y
B12: SA301a light chain variant V29P (antibody, V domains shown)
VH: B1 VH with T100Y
VL: B1 VL with V29P
B13: SA301a light chain variant S28M (antibody, V domains shown)
VH: B1 VH with T100Y
VL: B1 VL with S28M
B14: SA301a light chain variant V29E (antibody, V domains shown)
VH: B1 VH with T100Y
VL: B1 VL with V29E
B15: SA301a light chain variant S27R (antibody, V domains shown)
VH: B1 VH with T100Y
VL: B1 VL with S27R
B16: SA301a light chain variant S30D (antibody, V domains shown)
VH: B1 VH with T100Y
VL: B1 VL with S30D
B17: SA301a light chain variant S28P (antibody, V domains shown)
VH: B1 VH with T100Y
VL: B1 VL with S28P
B18: SA301a light chain variant S30F (antibody, V domains shown)
VH: B1 VH with T100Y
VL: B1 VL with S30F
B19: SA301a light chain variant S27H (antibody, V domains shown)
VH: B1 VH with T100Y
VL: B1 VL with S27H
B20: SA301a light chain variant S28F (antibody, V domains shown)
VH: B1 VH with T100Y
VL: B1 VL with S28F
B21: SA301a light chain variant S28E (antibody, V domains shown)
VH: B1 VH with T100Y
VL: B1 VL with S28E
B22: SA301a light chain variant S28G (antibody, V domains shown)
VH: B1 VH with T100Y
VL: B1 VL with S28G
B23: SA301a light chain variant S28H (antibody, V domains shown)
VH: B1 VH with T100Y
VL: B1 VL with S28H
B24: SA301a light chain variant S27L (antibody, V domains shown)
VH: B1 VH with T100Y
VL: B1 VL with S27L
B25: SA301a light chain variant S27M (antibody, V domains shown)
VH: B1 VH with T100Y
VL: B1 VL with S27M
B26: SA301a light chain variant S27I (antibody, V domains shown)
VH: B1 VH with T100Y
VL: B1 VL with S27I
B27: SA301a light chain variant S27Y (antibody, V domains shown)
VH: B1 VH with T100Y
VL: B1 VL with S27Y
B28: SA301a light chain variant S27K (antibody, V domains shown)
VH: B1 VH with T100Y
VL: B1 VL with S27K
B29: SA301a light chain variant S28N (antibody, V domains shown)
VH: B1 VH with T100Y
VL: B1 VL with S28N
B30: SA301a light chain variant S28D (antibody, V domains shown)
VH: B1 VH with T100Y
VL: B1 VL with S28D
B31: SA301a light chain variant S27Q (antibody, V domains shown)
VH: B1 VH with T100Y
VL: B1 VL with S27Q
B32: SA301a light chain variant S30L (antibody, V domains shown)
VH: B1 VH with T100Y
VL: B1 VL with S30L
B33: SA301a light chain variant S28T (antibody, V domains shown)
VH: B1 VH with T100Y
VL: B1 VL with S28T
B34: SA301a light chain variant S27D (antibody, V domains shown)
VH: B1 VH with T100Y
VL: B1 VL with S27D
B35: SA301a light chain variant V29Q (antibody, V domains shown)
VH: B1 VH with T100Y
VL: B1 VL with V29Q

target: T1, human IL-18BP; test: BLI, apparent KD

Question: How did the Kd turn out when B1 was run?
Answer: 0.61 nM

Question: Which Kd does the source give for B2 here?
Answer: 1.68 nM

Question: Which Kd does the source give for B3 here?
Answer: 0.87 nM

target: T2, human IL-18BP; test: BLI, apparent KD, one conc.

Question: B4 was tested. Which Kd did it give?
Answer: 0.32 nM

Question: For B5, which Kd is on record?
Answer: 0.49 nM

Question: B6 was tested. Which Kd did it give?
Answer: 0.51 nM

Question: Which Kd does the source give for B7 here?
Answer: 0.45 nM

Question: B8 was tested. Which Kd did it give?
Answer: 0.47 nM

Question: With B9 as the binder, how does the Kd read?
Answer: 0.45 nM

Question: How did the Kd turn out when B10 was run?
Answer: 0.47 nM

Question: How did the Kd turn out when B11 was run?
Answer: 0.47 nM

Question: How did the Kd turn out when B12 was run?
Answer: 0.38 nM

Question: B13 was tested. Which Kd did it give?
Answer: 0.51 nM

Question: How did the Kd turn out when B14 was run?
Answer: 0.34 nM

Question: How did the Kd turn out when B15 was run?
Answer: 0.45 nM

Question: With B16 as the binder, how does the Kd read?
Answer: 0.31 nM

Question: B17 was tested. Which Kd did it give?
Answer: 0.39 nM

Question: How did the Kd turn out when B18 was run?
Answer: 0.35 nM

Question: Which Kd does the source give for B19 here?
Answer: 0.53 nM

Question: B20 was tested. Which Kd did it give?
Answer: 0.46 nM

Question: B21 was tested. Which Kd did it give?
Answer: 0.39 nM

Question: B22 was tested. Which Kd did it give?
Answer: 0.51 nM

Question: For B23, which Kd is on record?
Answer: 0.44 nM

Question: For B24, which Kd is on record?
Answer: 0.44 nM

Question: B25 was tested. Which Kd did it give?
Answer: 0.63 nM

Question: Which Kd does the source give for B26 here?
Answer: 0.5 nM

Question: Which Kd does the source give for B27 here?
Answer: 0.37 nM

Question: B28 was tested. Which Kd did it give?
Answer: 0.52 nM

Question: For B29, which Kd is on record?
Answer: 0.45 nM

Question: B30 was tested. Which Kd did it give?
Answer: 0.42 nM

Question: B31 was tested. Which Kd did it give?
Answer: 0.43 nM

Question: How did the Kd turn out when B32 was run?
Answer: 0.49 nM

Question: With B33 as the binder, how does the Kd read?
Answer: 0.43 nM

Question: For B34, which Kd is on record?
Answer: 0.43 nM

Question: B35 was tested. Which Kd did it give?
Answer: 0.3 nM
